Patent publication US20080014203A1 (published 2008)

Key:
[1] = target: IGF-I receptor (IGF-IR) on tumor cells (HT29, NCI H322M) or on 3T3 cells transfected with IGF-IR (human) (UniProt P08069); assay: cell-based or functional assay
[2] = target: T1, IGF-IR extracellular domain (human, UniProt P08069 31-935); assay: SPR (BIACORE 3000); antibody captured by anti-human Fcγ antibody, IGF-IR extracellular domain in solution
T1 construct: extracellular domain; also called IGF-1R; insulin-like growth factor I receptor

[3] = target: T2, IGF-I receptor (IGF-IR) on tumor cells (HT29, NCI H322M) or on 3T3 cells transfected with IGF-IR (human, UniProt P08069 31-736; P08069 741-1367, Natural receptor on cells: glycosylated, disulfide-linked alpha2-beta2 heterotetramer. One alpha and one beta chain are given.); assay: displacement of I^125-labeled IGF-I from human tumor cells expressing IGF-IR (HT29, NCI H322M), scintillation counting
T2 construct: also called IGF-1R

Row | Molecule | Akt/PKB phosphorylation without IGF-I ligand (Western blot) [1] [nM] | Kd [2] [nM] | koff [2] [s⁻¹] | kon [2] [M⁻¹ s⁻¹] | IC50 [3] [nM]
1 | αIR3 (antibody) | > 5 | – | – | – | –
2 | <IGF-1R>HUMAB Clone 18 (antibody 18) (antibody, V domains shown) VH: QVELVESGGGVVQPGRSQRLSCAASGFTFSSYGMHWVRQAPGKGLEWVAIIWFDGSSTYYADSVRGRFTISRDNSKNTLYLQMNSLRAEDTAVYFCARELGRRYFDLWGRGTLVSVSS VL: EIVLTQSPATLSLSPGERATLSCRASQSVSSYLAWYQQKPGQAPRLLIYDASKRATGIPARFSGSGSGTDFTLTISSLEPEDFAVYYCQQRSKWPPWTFGQGTKVESK | – | 0.000695 | 1.03e-07 | 149000 | 0.3
3 | <IGF-1R>HUMAB Clone 22 (antibody 22) (antibody, V domains shown) VH: VQLVESGGGVVQPGRSLRLSCAASGFTFSSYGMHWVRQAPGKGLEWMAIIWFDGSSKYYGDSVKGRFTISRDNSKNTLYLQMNSLRADDTAVYYCARELGRRYFDLWGRGTLVTVSS VL: EIVLTQSPATLSLSPGERATLSCRASQSVSSYLAWYQQKPGQAPRLLIYDASNRATGIPARFSGSGSGTDFTLTISSLEPEDFAVYYCQQRSKWPPWTFGQGTKVEIK | – | 0.656 | 9.64e-05 | 147000 | –
